Results on 125 sequences are retold here after the supplement of paper PMC9112550, “Optimization of the antimicrobial peptide Bac7 by deep mutational scanning” (BMC Biology, 2022).

The series deals with Escherichia coli TOP10. Nature of the series: shrunken log2 fold change of peptide-encoding DNA abundance (4.5 h post-induction vs induction); higher = less antimicrobial activity (less host growth inhibition). The settings on record: time post-induction: 4.5 h; library: site-saturation at positions 5, 18, 19, 20.
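Also: peptides expressed intracellularly from a pBAD plasmid library in pooled LB shake-flask culture, induced with 0.3% L-arabinose, DNA abundance read by NGS, three biological replicates, DESeq2 with apeglm shrinkage.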

Take RRIRNRPPRLPRPRPRPVTVPRP: the “shrunken log2 fold change” value is -0.404.
Turning to RRIRKRPPRLPRPRPRPDFDPRP, the “shrunken log2 fold change” value was -0.183.
Regarding RRIRHRPPRLPRPRPRPWIEPRP, the “shrunken log2 fold change” value stood at 0.0254.
The value for RRIRNRPPRLPRPRPRPCVSPRP was 0.0348; that for RRIRVRPPRLPRPRPRPPALPRP was 0.189; that for RRIRERPPRLPRPRPRPDSDPRP was -0.0703.
RRIRWRPPRLPRPRPRPYVPPRP: the “shrunken log2 fold change” value is -0.837.
Regarding RRIRTRPPRLPRPRPRPLGYPRP, the “shrunken log2 fold change” value is -0.213.
For RRIRFRPPRLPRPRPRPVPWPRP, the “shrunken log2 fold change” value was found to be 0.0558.
Take RRIRTRPPRLPRPRPRPRDKPRP: the “shrunken log2 fold change” value was -0.18.
In the case of RRIRARPPRLPRPRPRPDEYPRP, the “shrunken log2 fold change” value is -0.0116.
For the sequence RRIRWRPPRLPRPRPRPCKPPRP, the “shrunken log2 fold change” value was determined as 0.119.
With RRIRIRPPRLPRPRPRPMVCPRP, the “shrunken log2 fold change” value was -0.0245.
In the case of RRIRMRPPRLPRPRPRPHKSPRP it was 0.223; in that of RRIRYRPPRLPRPRPRPCPSPRP, 0.109; in that of RRIRERPPRLPRPRPRPCYCPRP, -0.539.
For the sequence RRIRIRPPRLPRPRPRPDQNPRP, the “shrunken log2 fold change” value came to 0.0467.
Take RRIRWRPPRLPRPRPRPDDGPRP: the “shrunken log2 fold change” value was found to be 0.305.
In the case of RRIRMRPPRLPRPRPRPQSVPRP, the “shrunken log2 fold change” value is 0.0409.
For RRIRDRPPRLPRPRPRPLRAPRP, the “shrunken log2 fold change” value is 1.15.
Turning to RRIRTRPPRLPRPRPRPDTTPRP, the “shrunken log2 fold change” value was -0.0469.
In the case of RRIRNRPPRLPRPRPRPKQPPRP, the “shrunken log2 fold change” value is 0.00591.
For RRIRSRPPRLPRPRPRPCLWPRP, the “shrunken log2 fold change” value stood at 0.0729.
As for RRIRYRPPRLPRPRPRPFLVPRP, the “shrunken log2 fold change” value was -1.03.
For the sequence RRIRERPPRLPRPRPRPLTQPRP, the “shrunken log2 fold change” value is -0.281.
Turning to RRIRPRPPRLPRPRPRPPVGPRP, the “shrunken log2 fold change” value was 0.557.
Turning to RRIRIRPPRLPRPRPRPLMDPRP, the “shrunken log2 fold change” value is -0.396.
Take RRIRPRPPRLPRPRPRPIMQPRP: the “shrunken log2 fold change” value is -0.391.
Take RRIRGRPPRLPRPRPRPRDWPRP: the “shrunken log2 fold change” value worked out at 1.25.
Regarding RRIRTRPPRLPRPRPRPFSDPRP, the “shrunken log2 fold change” value was -0.399.
In the case of RRIRTRPPRLPRPRPRPRKPPRP it was 0.225; in that of RRIRDRPPRLPRPRPRPPTKPRP, 0.00654; in that of RRIRPRPPRLPRPRPRPECEPRP, 0.291.
As to RRIRMRPPRLPRPRPRPEKDPRP, the “shrunken log2 fold change” value came to 2.62.
RRIRSRPPRLPRPRPRPALFPRP: the “shrunken log2 fold change” value turned out to be 0.069.
In the case of RRIRRRPPRLPRPRPRPQLYPRP, the “shrunken log2 fold change” value amounted to 0.101.
With RRIRFRPPRLPRPRPRPAQNPRP, the “shrunken log2 fold change” value stood at 0.348.
RRIRERPPRLPRPRPRPILGPRP: the “shrunken log2 fold change” value was -0.197.
Take RRIRYRPPRLPRPRPRPGDHPRP: the “shrunken log2 fold change” value stood at 0.0294.
For RRIRCRPPRLPRPRPRPHPCPRP, the “shrunken log2 fold change” value is -0.579.
On to RRIRRRPPRLPRPRPRPGYSPRP, for which the “shrunken log2 fold change” value came to 1.84.
The value for RRIRLRPPRLPRPRPRPQVTPRP was 0.0952; that for RRIRWRPPRLPRPRPRPRNAPRP was 0.0837.
In the case of RRIRSRPPRLPRPRPRPKERPRP it was 0.265; in that of RRIRKRPPRLPRPRPRPTMDPRP, 0.0288; in that of RRIRHRPPRLPRPRPRPCWHPRP, -0.112.
For the sequence RRIRWRPPRLPRPRPRPEVPPRP, the “shrunken log2 fold change” value turned out to be 0.0568.
As for RRIRRRPPRLPRPRPRPNQFPRP, the “shrunken log2 fold change” value is 0.119.
For the sequence RRIRQRPPRLPRPRPRPDEMPRP, the “shrunken log2 fold change” value is -0.0225.
On to RRIRRRPPRLPRPRPRPFNAPRP, for which the “shrunken log2 fold change” value was -0.0138.
With RRIRMRPPRLPRPRPRPNGPPRP, the “shrunken log2 fold change” value was found to be 0.114.
The value for RRIRYRPPRLPRPRPRPERHPRP was -0.0384; that for RRIRGRPPRLPRPRPRPMICPRP was 0.166.
RRIRDRPPRLPRPRPRPEQQPRP: the “shrunken log2 fold change” value was determined as 0.374.
The value for RRIRTRPPRLPRPRPRPNAKPRP was -0.0531; that for RRIRTRPPRLPRPRPRPPNQPRP was 0.185.
For RRIRVRPPRLPRPRPRPAWPPRP, the “shrunken log2 fold change” value came out at 0.537.
In the case of RRIRHRPPRLPRPRPRPAQEPRP, the “shrunken log2 fold change” value was found to be 0.381.
Consider RRIRTRPPRLPRPRPRPMEFPRP, for which the “shrunken log2 fold change” value is -0.0956.
With RRIRARPPRLPRPRPRPNQLPRP, the “shrunken log2 fold change” value was -0.0527.
As for RRIRERPPRLPRPRPRPSSQPRP, the “shrunken log2 fold change” value is 0.123.
With RRIRGRPPRLPRPRPRPQMTPRP, the “shrunken log2 fold change” value stood at 2.33.
Consider RRIRNRPPRLPRPRPRPYRRPRP, for which the “shrunken log2 fold change” value is -0.281.
For the sequence RRIRIRPPRLPRPRPRPRRKPRP, the “shrunken log2 fold change” value is 0.0881.
For RRIRPRPPRLPRPRPRPIDFPRP, the “shrunken log2 fold change” value was -0.125.
Take RRIRARPPRLPRPRPRPPRWPRP: the “shrunken log2 fold change” value amounted to 0.794.
RRIRLRPPRLPRPRPRPKSQPRP: the “shrunken log2 fold change” value was found to be 0.00795.
With RRIRTRPPRLPRPRPRPMRIPRP, the “shrunken log2 fold change” value is -0.0254.
Regarding RRIRCRPPRLPRPRPRPYTHPRP, the “shrunken log2 fold change” value was -1.19.
Consider RRIRFRPPRLPRPRPRPESQPRP, for which the “shrunken log2 fold change” value was -0.0723.
In the case of RRIRRRPPRLPRPRPRPWMSPRP, the “shrunken log2 fold change” value came to 0.118.
On to RRIRSRPPRLPRPRPRPCTEPRP, for which the “shrunken log2 fold change” value is -0.241.
Turning to RRIRHRPPRLPRPRPRPQRMPRP, the “shrunken log2 fold change” value was -0.16.
On to RRIRKRPPRLPRPRPRPLQLPRP, for which the “shrunken log2 fold change” value came out at 0.166.
RRIRNRPPRLPRPRPRPQVCPRP: the “shrunken log2 fold change” value was 0.0261.
Regarding RRIRNRPPRLPRPRPRPRSSPRP, the “shrunken log2 fold change” value was -0.145.
Consider RRIRPRPPRLPRPRPRPEAVPRP, for which the “shrunken log2 fold change” value amounted to 0.216.
RRIRCRPPRLPRPRPRPSTEPRP: the “shrunken log2 fold change” value is -0.174.
For the sequence RRIRKRPPRLPRPRPRPCQDPRP, the “shrunken log2 fold change” value worked out at 0.0115.
Consider RRIRYRPPRLPRPRPRPYCCPRP, for which the “shrunken log2 fold change” value is -0.145.
In the case of RRIRWRPPRLPRPRPRPQWEPRP, the “shrunken log2 fold change” value was -0.0152.
Take RRIRTRPPRLPRPRPRPFVPPRP: the “shrunken log2 fold change” value worked out at 2.01.
With RRIRQRPPRLPRPRPRPQKDPRP, the “shrunken log2 fold change” value was -0.29.
On to RRIRKRPPRLPRPRPRPLLEPRP, for which the “shrunken log2 fold change” value was determined as 0.241.
Take RRIRWRPPRLPRPRPRPSEGPRP: the “shrunken log2 fold change” value was 0.0528.
The value for RRIRDRPPRLPRPRPRPPYHPRP was -0.302.
With RRIRARPPRLPRPRPRPWVTPRP, the “shrunken log2 fold change” value is -0.127.
RRIRARPPRLPRPRPRPGFVPRP: the “shrunken log2 fold change” value came to 0.42.
With RRIRQRPPRLPRPRPRPSDTPRP, the “shrunken log2 fold change” value is -0.0683.
The value for RRIRRRPPRLPRPRPRPFVNPRP was -0.049.
Take RRIRKRPPRLPRPRPRPALVPRP: the “shrunken log2 fold change” value worked out at 0.623.
On to RRIRLRPPRLPRPRPRPTPQPRP, for which the “shrunken log2 fold change” value was 0.594.
RRIRGRPPRLPRPRPRPKMNPRP: the “shrunken log2 fold change” value was determined as 0.407.
On to RRIRPRPPRLPRPRPRPYPKPRP, for which the “shrunken log2 fold change” value is -0.0921.
In the case of RRIRDRPPRLPRPRPRPRHLPRP it was -0.199.
As for RRIRGRPPRLPRPRPRPAMHPRP, the “shrunken log2 fold change” value turned out to be 1.03.
Turning to RRIRDRPPRLPRPRPRPFVSPRP, the “shrunken log2 fold change” value amounted to 0.00609.
The value for RRIRGRPPRLPRPRPRPAYLPRP was 0.235; that for RRIRWRPPRLPRPRPRPIPTPRP was -0.0487.
As to RRIRPRPPRLPRPRPRPWSQPRP, the “shrunken log2 fold change” value came out at 0.0452.
As to RRIRTRPPRLPRPRPRPKIVPRP, the “shrunken log2 fold change” value is -0.0543.
As for RRIRVRPPRLPRPRPRPKFHPRP, the “shrunken log2 fold change” value turned out to be 0.678.
In the case of RRIRTRPPRLPRPRPRPCYAPRP it was -0.215.
Turning to RRIRLRPPRLPRPRPRPWHVPRP, the “shrunken log2 fold change” value is -0.121.
For RRIRDRPPRLPRPRPRPYQQPRP, the “shrunken log2 fold change” value was -0.184.
On to RRIRGRPPRLPRPRPRPDMHPRP, for which the “shrunken log2 fold change” value is 0.512.
In the case of RRIRFRPPRLPRPRPRPGKPPRP it was -0.0809.
As for RRIRGRPPRLPRPRPRPNGPPRP, the “shrunken log2 fold change” value was -0.0411.
Turning to RRIRWRPPRLPRPRPRPRDKPRP, the “shrunken log2 fold change” value turned out to be 0.347.
For the sequence RRIRRRPPRLPRPRPRPDIPPRP, the “shrunken log2 fold change” value was -0.22.
For RRIRFRPPRLPRPRPRPKCVPRP, the “shrunken log2 fold change” value is -0.184.
Consider RRIRYRPPRLPRPRPRPEDKPRP, for which the “shrunken log2 fold change” value is -0.0222.
Consider RRIRNRPPRLPRPRPRPKQLPRP, for which the “shrunken log2 fold change” value is 0.252.
For RRIRFRPPRLPRPRPRPNFMPRP, the “shrunken log2 fold change” value is -0.0155.
The value for RRIRPRPPRLPRPRPRPTKSPRP was 0.777; that for RRIRIRPPRLPRPRPRPRQCPRP was -0.127; that for RRIRFRPPRLPRPRPRPILEPRP was -0.133.
On to RRIRHRPPRLPRPRPRPQWLPRP, for which the “shrunken log2 fold change” value turned out to be 0.134.
For the sequence RRIRYRPPRLPRPRPRPNSGPRP, the “shrunken log2 fold change” value was -0.01.
For RRIRQRPPRLPRPRPRPQTNPRP, the “shrunken log2 fold change” value was -0.736.
RRIRLRPPRLPRPRPRPLVPPRP: the “shrunken log2 fold change” value was -0.258.
For RRIRIRPPRLPRPRPRPLRCPRP, the “shrunken log2 fold change” value is -0.14.
The value for RRIRYRPPRLPRPRPRPCILPRP was 0.00867; that for RRIRMRPPRLPRPRPRPSWMPRP was -0.0767.
For RRIRCRPPRLPRPRPRPRVEPRP, the “shrunken log2 fold change” value was determined as 0.0473.
